For test [1], the target named is CDC42 Q61L (human) (UniProt P60953). Briefly: fluorescence polarisation; IQGAP1 variant titrated to mGppNHp-bound RHO protein (1 μM); equilibrium Kd (eKd), quadratic fit; 30 mM Tris/HCl pH 7.5, 150 mM NaCl, 5 mM MgCl2, 3 mM DTT, 25 °C. (Polarisation of emitted light reports the rotation of a fluorescent probe.)
In test [2] the target is CDC42 (aa 1-178) (human) (UniProt P60953). Described as above.
Another test concerns the target RAC1 (aa 1-179) (human) (UniProt P63000). The description is as above.
The target in test [3] is CDC42 (aa 1-178) (human) (UniProt P60953). Nature of the test: fluorescence polarisation; IQGAP1 variant titrated to mGDP-bound (inactive) RHO protein (1 μM), same conditions as with mGppNHp; 30 mM Tris/HCl pH 7.5, 150 mM NaCl, 5 mM MgCl2, 3 mM DTT, 25 °C.
The target of test [4] is CDC42 Q61L (human) (UniProt P60953). Nature of the test: fluorescence polarisation; GRD1-CT (0-2.5 μM) or GRD2 (0-7.5 μM) titrated to tGppNHp-bound CDC42 Q61L (1 μM); 30 mM Tris/HCl pH 7.5, 150 mM NaCl, 5 mM MgCl2, 3 mM DTT, 25 °C.
Test [5] has the same target. Briefly: stopped-flow fluorometry; tGppNHp (tamra-GppNHp)-bound CDC42 or CDC42 Q61L (0.2 μM) rapidly mixed with IQGAP1 variant (2-10 μM GRD1-CT for Q61L); Kd = koff/kon; 30 mM Tris-HCl pH 7.5, 10 mM KH2PO4/K2HPO4, 5 mM MgCl2, 3 mM DTT.

Sequence of IQGAP1 GRD1-CT (aa 863-1657) (P46940 863-1657): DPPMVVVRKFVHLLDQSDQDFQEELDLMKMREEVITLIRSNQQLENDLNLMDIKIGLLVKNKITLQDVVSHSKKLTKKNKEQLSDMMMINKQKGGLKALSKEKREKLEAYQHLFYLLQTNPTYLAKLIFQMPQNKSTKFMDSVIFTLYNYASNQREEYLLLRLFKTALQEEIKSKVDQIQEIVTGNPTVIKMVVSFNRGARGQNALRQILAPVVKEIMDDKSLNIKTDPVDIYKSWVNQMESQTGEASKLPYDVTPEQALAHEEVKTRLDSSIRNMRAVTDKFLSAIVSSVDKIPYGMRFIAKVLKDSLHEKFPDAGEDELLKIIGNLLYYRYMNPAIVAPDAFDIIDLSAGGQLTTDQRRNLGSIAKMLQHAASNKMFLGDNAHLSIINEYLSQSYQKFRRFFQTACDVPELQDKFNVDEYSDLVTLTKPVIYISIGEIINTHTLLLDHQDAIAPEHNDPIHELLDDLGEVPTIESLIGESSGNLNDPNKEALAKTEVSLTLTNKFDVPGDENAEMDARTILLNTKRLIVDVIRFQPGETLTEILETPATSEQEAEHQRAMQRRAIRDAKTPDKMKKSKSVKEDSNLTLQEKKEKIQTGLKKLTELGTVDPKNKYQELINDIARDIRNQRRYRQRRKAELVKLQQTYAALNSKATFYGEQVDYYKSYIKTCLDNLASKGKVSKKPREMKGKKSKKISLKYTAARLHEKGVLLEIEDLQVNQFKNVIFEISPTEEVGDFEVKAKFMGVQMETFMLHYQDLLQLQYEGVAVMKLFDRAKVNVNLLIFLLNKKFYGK
Sequence of IQGAP1 GRD2 (aa 962-1345) (P46940 962-1345): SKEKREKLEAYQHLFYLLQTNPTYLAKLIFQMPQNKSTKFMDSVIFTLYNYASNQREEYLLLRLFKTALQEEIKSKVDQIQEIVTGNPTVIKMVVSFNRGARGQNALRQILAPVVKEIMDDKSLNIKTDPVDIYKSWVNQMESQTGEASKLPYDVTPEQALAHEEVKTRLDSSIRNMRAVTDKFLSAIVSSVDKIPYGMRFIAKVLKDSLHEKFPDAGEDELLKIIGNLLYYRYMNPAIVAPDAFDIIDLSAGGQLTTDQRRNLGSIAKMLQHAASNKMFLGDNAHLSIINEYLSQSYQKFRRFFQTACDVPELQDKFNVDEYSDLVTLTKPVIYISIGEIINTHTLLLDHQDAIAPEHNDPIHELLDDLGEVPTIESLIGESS
Sequence of CDC42 (aa 1-178) (human) (P60953 1-178): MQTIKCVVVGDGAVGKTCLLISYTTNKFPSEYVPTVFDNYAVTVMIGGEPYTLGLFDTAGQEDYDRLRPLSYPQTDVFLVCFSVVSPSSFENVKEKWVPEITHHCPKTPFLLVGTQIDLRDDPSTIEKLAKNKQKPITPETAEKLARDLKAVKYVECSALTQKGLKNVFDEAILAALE

One may read the Kd as the free concentration of one partner at which half of the binding sites on the other are occupied at equilibrium, for simple one-to-one binding. Low values mean a tighter complex, high ones a looser complex. “IQGAP1 GRD2 (aa 962-1345) (from UniProt P46940 962-1345) (domain or fragment)”: the Kd with CDC42 Q61L (human) [1] was 2370 nM; with CDC42 (aa 1-178) (human) [2], 30.2 µM; with RAC1 (aa 1-179) (human), 81.5 µM; in the test with CDC42 (aa 1-178) (human) [3] it was 185 µM; with CDC42 Q61L (human) [4], 1130 nM.
Turning to “IQGAP1 GRD1-CT (aa 863-1657) (from UniProt P46940 863-1657) (domain or fragment)”, the Kd is 50 nM in the test with CDC42 Q61L (human) [5], 830 nM in the test with CDC42 Q61L (human) [1] and 520 nM with CDC42 Q61L (human) [4].

The record behind these values is publication PMC5159498.
